From PMC7418079

Biological target: Enterovirus D68 virion, B1 clade isolate US/MO/14–18947 (Enterovirus D68)

B1: mAb EV68–159 (antibody, V domains shown)
VH: EVQLVESGGGLVKPGGLRLSCAASGFTFSTYIMTWVRQAPGRGLEWVSSISTSSVYTFYADSLKGRFTISRDNAKNSVYLQMNSLRADDTAVYYCAREEGFRAYNLYWGQGTLVTVSS
VL: QSVLTQPPSASGTPGQRVTISCSGSSSNIEYNYVYWYQKFPGTAPKLLIYKNNQRPSGVPDRFSGSKSGTSASLAISGLRSEDEGDYYCAAWDDILSGVVFGGGTKLTVL
IC50 of neutralisation of a B1 clade EV-D68 isolate, CCID50 assay on RD cells: 0.32 ng/mL
